Measurements reported in article PMC9673926, “Nucleotide binding as an allosteric regulatory mechanism for Akkermansia muciniphila β-N-acetylhexosaminidase Am2136” (Gut Microbes, 2022).
Changes are numbered by the printed parent chain. Names may count otherwise.

B1: Δ D717-K727 (Akkermansia muciniphila ATCC BAA-835; DEL717-727) (protein)
chain: QDAKQIADSLSIPPVKAGAKQLPMPSVSGAQIKLLGADYEQLVNSKGKIAPVISDTPVNVSFKVTKDGKEAVSKDYEIMLQAPQAAQGNPKPRIIPEILQWKGGQGEYKLGNTVTIACPDKELGKLFAADMEDVLGKKVKLVAPGAKADISLSLLKGGNLGREGYRLQIARDGVRLGAAAPTGLFWGTRTLLQMLRQTPGSVPCGTAVDFPRYQLRGFMLDVARTPYPLSYLKDVIRTMAWYKMNDLHLVINNNYIFHEHYVDNGHDPFKESYAAFRLESKMKGKDGTPLTARDLFYTKKEFADLVSYARKYGVNIVPEFDTPGHALSFTRLRPDLIYKGPMNHEKRRCEMLDAANPETIDLVSKVFDEYMLKDPKLGRPVFADCGVVHVGADEFYGDKEDYRHFANAVLTHALKRGYTPRIWGSLSAKPGKTPVVSKGVQMNLWSTGWMKAWEAVNQGYDVINTNDGALYIVPFAGYYRMDRNHKGLYNNWIPNRIGNETLPSGHPQLLGGTFAVWNDETDIMHTGYAPYDIWGIISGSMDVLSQKLWGTAKAPDTFEQHRELVSSIGNAPRTNPLHKWKDSQPLTVKPSSLPQKLDKPALGPNYRLTMELELTAAPEGKEQVLLAAPEGELLAVMKDGTVGFRRDDSLEFSFGAKLPVGKKVKVEIVGEPEKTSLLLDGEPAGTAVLKNFSDKSKVHRSTFILPLKELGSSFQGKVFHMNVQPL
notes: residues Q20-L756 without signal peptide, N-terminal 6xHis-tag; loop D717-K727 deleted
B2: Am2136 WT (Akkermansia muciniphila ATCC BAA-835) (protein)
chain: QDAKQIADSLSIPPVKAGAKQLPMPSVSGAQIKLLGADYEQLVNSKGKIAPVISDTPVNVSFKVTKDGKEAVSKDYEIMLQAPQAAQGNPKPRIIPEILQWKGGQGEYKLGNTVTIACPDKELGKLFAADMEDVLGKKVKLVAPGAKADISLSLLKGGNLGREGYRLQIARDGVRLGAAAPTGLFWGTRTLLQMLRQTPGSVPCGTAVDFPRYQLRGFMLDVARTPYPLSYLKDVIRTMAWYKMNDLHLVINNNYIFHEHYVDNGHDPFKESYAAFRLESKMKGKDGTPLTARDLFYTKKEFADLVSYARKYGVNIVPEFDTPGHALSFTRLRPDLIYKGPMNHEKRRCEMLDAANPETIDLVSKVFDEYMLKDPKLGRPVFADCGVVHVGADEFYGDKEDYRHFANAVLTHALKRGYTPRIWGSLSAKPGKTPVVSKGVQMNLWSTGWMKAWEAVNQGYDVINTNDGALYIVPFAGYYRMDRNHKGLYNNWIPNRIGNETLPSGHPQLLGGTFAVWNDETDIMHTGYAPYDIWGIISGSMDVLSQKLWGTAKAPDTFEQHRELVSSIGNAPRTNPLHKWKDSQPLTVKPSSLPQKLDKPALGPNYRLTMELELTAAPEGKEQVLLAAPEGELLAVMKDGTVGFRRDDSLEFSFGAKLPVGKKVKVEIVGEPEKTSLLLDGEPAGTAVLKNFSDKSKDFSDKFKHRPKVHRSTFILPLKELGSSFQGKVFHMNVQPL
B3: D57A+E59A+Q60A (Akkermansia muciniphila ATCC BAA-835; D57A/E59A/Q60A) (protein)
chain: B2 chain with D38A, E40A, Q41A
notes: residues Q20-L756 without signal peptide, N-terminal 6xHis-tag
B4: Y550A (Akkermansia muciniphila ATCC BAA-835; Y550A) (protein)
chain: B2 chain with Y531A
B5: E649A (Akkermansia muciniphila ATCC BAA-835; E649A) (protein)
chain: B2 chain with E630A
B6: T545A+G546A (Akkermansia muciniphila ATCC BAA-835; G546A/T545A) (protein)
chain: B2 chain with T526A, G527A
notes: as for B3
B7: R256A (Akkermansia muciniphila ATCC BAA-835; R256A) (protein)
chain: B2 chain with R237A
B8: Y415A (Akkermansia muciniphila ATCC BAA-835; Y415A) (protein)
chain: B2 chain with Y396A
notes: as for B3
B9: Y327F+Y331F (Akkermansia muciniphila ATCC BAA-835; Y327F/Y331F) (protein)
chain: B2 chain with Y308F, Y312F

What was measured:
Am2136 WT [1] = molecular target: T1, Am2136 WT (Akkermansia muciniphila, UniProt B2UPR7); assay: Enzyme activity assay (pNP-β-GlcNAc hydrolysis) regulated by nucleotides; format: biochemical; conditions: WT; 1 mM nucleotide; substrate pNP-β-GlcNAc; 37°C
T1 construct: The coding region (residue Q20-L756) of Am2136 without signal peptide was based on UniProt; 6XHis (N); made in house; host or cells: E. coli BL21 (DE3)

Am2136 WT [2] = molecular target: T1, Am2136 WT; assay: Nucleotide binding affinity by intrinsic fluorescence; conditions: Am2136 WT; fluorescence ex 286 nm/em 336 nm
Description: The nucleotide binding ability was determined on Fluorescence Spectrometer Duetta (HORIBA) by measuring the change of peak intensity. The fluorescence was excited at 286 nm and emitted at 336 nm. And the measurement was processed under 400 V voltage with 2.5 nm excitation slit and 5 nm emission slit. […] The sample was incubated at 4°C for 5 min before testing.

[3] = substrate: CC(=O)N[C@H]1[C@H](Oc2ccc([N+](=O)[O-])cc2)O[C@H](CO)[C@@H](O)[C@@H]1O; assay: Release of 4-nitrophenolate from pNP-β-GlcNAc (0.125-4 mM) followed at 405 nm for 5 min with 2 μM enzyme in 25 mM Tris pH 8.0, 150 mM NaCl at 37 °C, no nucleotide.; format: biochemical
Source text: All experiments were repeated three times.

[4] = substrate: CC(=O)N[C@H]1[C@H](Oc2ccc([N+](=O)[O-])cc2)O[C@H](CO)[C@@H](O)[C@@H]1O; assay: purified protein, by the assay type; conditions: pH 8.0

Row | Molecule | Vmax (Am2136 WT [1]) [µmol/min] | Kd (Am2136 WT [2]) [µM] | Km ([4]; 37.0 °C) [µM] | other results
1 | Nc1ncnc2c1ncn2[C@@H]1O[C@H](COP(=O)(O)OP(=O)(O)O)[C@@H](O)[C@H]1O [ADP] | 422 ± 6 | 255 ± 4.98 | – | –
2 | Nc1ncnc2c1ncn2[C@@H]1O[C@H](COP(=O)(O)OP(=O)(O)OP(=O)(O)O)[C@@H](O)[C@H]1O [ATP] | 442 ± 9 | 245 ± 5.99 | – | –
3 | Nc1ccn([C@@H]2O[C@H](COP(=O)(O)OP(=O)(O)O)[C@@H](O)[C@H]2O)c(=O)n1 [CDP] | 435 ± 6 | 157 ± 3.89 | – | –
4 | Nc1ccn([C@@H]2O[C@H](COP(=O)(O)OP(=O)(O)OP(=O)(O)O)[C@@H](O)[C@H]2O)c(=O)n1 [CTP] | 436 ± 7 | 167 ± 5.91 | – | –
5 | Nc1nc2c(ncn2[C@@H]2O[C@H](COP(=O)(O)OP(=O)(O)OP(=O)(O)O)[C@@H](O)[C@H]2O)c(=O)[nH]1 [GTP] | 449 ± 7 | 123 ± 3.76 | – | –
6 | O=c1ccn([C@@H]2O[C@H](COP(=O)(O)OP(=O)(O)O)[C@@H](O)[C@H]2O)c(=O)[nH]1 [UDP] | 429 ± 9 | 179 ± 7.71 | – | –
7 | O=c1ccn([C@@H]2O[C@H](COP(=O)(O)OP(=O)(O)OP(=O)(O)O)[C@@H](O)[C@H]2O)c(=O)[nH]1 [UTP] | 439 ± 7 | 199 ± 3.66 | – | –
8 | B1 | – | – | – | Km [3]: 6560 ± 410 µM; Vmax [3]: 144 µmol/min; kcat/Km [3]: 11000 ± 1000 M⁻¹ s⁻¹
9 | B2 | – | – | 1460 ± 50 | Km [4]: 1530 ± 80 µM
10 | B3 | – | – | – | Km [3]: 1410 ± 60 µM; Vmax [3]: 432 µmol/min; kcat/Km [3]: 153000 ± 3000 M⁻¹ s⁻¹
11 | B4 | – | – | 1520 ± 40 | –
12 | B5 | – | – | 1450 ± 90 | –
13 | B6 | – | – | – | Km [3]: 3660 ± 690 µM; Vmax [3]: 264 µmol/min; kcat/Km [3]: 36000 ± 5000 M⁻¹ s⁻¹
14 | B7 | – | – | 1490 ± 60 | –
15 | B8 | – | – | – | Km [3]: 2320 ± 80 µM; Vmax [3]: 399 µmol/min; kcat/Km [3]: 86000 ± 1000 M⁻¹ s⁻¹
16 | B9 | – | – | 1420 ± 60 | –
